{
  "source": "paper doi:10.1101/183855",
  "target": "DEAD-box RNA helicase DDX6 (human (endogenous in 293T)) (UniProt P26196)",
  "sequence (P26196 whole entry)": "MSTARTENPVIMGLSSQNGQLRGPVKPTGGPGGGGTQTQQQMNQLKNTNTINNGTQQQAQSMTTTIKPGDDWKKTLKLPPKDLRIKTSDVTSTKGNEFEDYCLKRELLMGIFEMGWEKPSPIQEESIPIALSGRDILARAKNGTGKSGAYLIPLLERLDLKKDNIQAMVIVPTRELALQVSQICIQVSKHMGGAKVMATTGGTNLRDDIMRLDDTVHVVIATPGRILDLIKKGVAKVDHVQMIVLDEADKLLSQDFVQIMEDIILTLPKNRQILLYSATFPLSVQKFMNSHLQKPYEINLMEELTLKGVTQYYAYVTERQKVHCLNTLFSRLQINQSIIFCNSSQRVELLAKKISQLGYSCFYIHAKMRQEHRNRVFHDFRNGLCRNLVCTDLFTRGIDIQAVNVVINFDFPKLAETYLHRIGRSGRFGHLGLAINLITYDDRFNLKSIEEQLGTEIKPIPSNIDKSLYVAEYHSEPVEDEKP",
  "assay": "proximity ligation",
  "data": [
    {"substance": "G2A Gag (HIV-1 Gag with glycine 2 changed to alanine, expressed from LAI provirus) (natural protein)", "values": [
      {"measurement": "PLA spots per Z stack image (PLA spots per Z stack image)", "result": 56},
      {"measurement": "PLA spots per cell (PLA spots per cell)", "result": 50}
    ]},
    {"substance": "HIV-1 Gag, wild type (expressed from LAI provirus) (natural protein)", "values": [
      {"measurement": "PLA spots per cell (PLA spots per cell)", "result": 50}
    ]}
  ]
}
